Data published in paper doi:10.1101/605725.

Target: GST-Nxf2 first LRR region (1-285) (UniProt Q9VV73 1-285)
Assay: EMSA

GST-Nxf2 first LRR region (1-285), sequence (Q9VV73 1-285): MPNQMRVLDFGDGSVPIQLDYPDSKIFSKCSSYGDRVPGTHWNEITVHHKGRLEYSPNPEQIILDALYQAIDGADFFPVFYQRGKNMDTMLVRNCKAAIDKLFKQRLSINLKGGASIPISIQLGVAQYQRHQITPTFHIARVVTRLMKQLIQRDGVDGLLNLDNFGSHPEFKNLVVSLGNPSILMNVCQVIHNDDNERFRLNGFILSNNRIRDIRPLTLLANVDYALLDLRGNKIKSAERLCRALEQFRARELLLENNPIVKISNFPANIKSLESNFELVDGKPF

## AGCACCGUAAAGACGC (ssRNA) [16-mer ssRNA]
  binding result: binds
